Experimental data reported in patent US20230183355A1 (UNIVERSITY OF WESTERN ONTARIO, published 2023).

Assays:
[1] = target: T1, human CD11d/CD18 expressed on JY cells (human, UniProt Q13349 18-1161; P05107 23-769); test: FACS on JY cells expressing human CD11d/CD18; non-linear regression, one-site binding model
T1 construct: whole, on cells
Experimental: (§1) Binding affinity of the exemplified CD11d antibodies of Table 2 were determined, for both human and rat CD11d, by Fluorescence Activated Cell Sorting (FACS) analysis. JY cells expressing human CD11d/CD18 or JY cells transfected with full-length rat CD11d are suspended in FACS buffer with goat IgG (1 mg/ml). The cell solution is added to wells of 96-well round-bottom plates at a density of 4.0×10⁴ cells in 50 μL solution. Each of the exemplified CD11d antibodies of Table 2 (25 μL) or isotype control antibody (25 μL) is added to a respective well at 1:3 dilutions at final concentrations ranging between 4.6 ng/mL to 10 μg/mL. The plates are incubated on ice for 30 minutes, after which 200 μL of FACS buffer is added, plates are centrifuged at 2000 rpm for 3 minutes, and the liquid is discarded. Cells are re-suspended with 50 μL of a phycoerythrin-conjugated antibody (Jackson ImmunoResearch p/n. 709-116-149) at a 1:150 dilution and incubated on ice for 20 minutes. FACS buffer is added (200 μL) to each well and plates are spun at 2000 rpm for 3 minutes. The liquid is discarded, cells are washed with 200 μL FACS buffer, re-suspended in 120 μL of 1% paraformaldehyde in PBS, and transferred to 96-well flat-bottom plates.
(§2) Stained cells are analyzed by flow cytometry with the gate set on the isotype control antibody. The specific percent gated is calculated as [% gated (test antibody)−% gated (isotype control antibody)]. Kd determinations were made based on a non-linear regression, one-site binding model. Following procedures essentially as described above, binding affinities of the exemplified CD11d antibodies of Table 2 to human and rat CD11d were obtained.

[2] = target: T2, full-length rat CD11d on transfected JY cells (rat, UniProt Q9QYE7 20-1161); test: FACS on JY cells transfected with full-length rat CD11d; non-linear regression, one-site binding model
T2 construct: whole, on cells
T2 sequence (looked up): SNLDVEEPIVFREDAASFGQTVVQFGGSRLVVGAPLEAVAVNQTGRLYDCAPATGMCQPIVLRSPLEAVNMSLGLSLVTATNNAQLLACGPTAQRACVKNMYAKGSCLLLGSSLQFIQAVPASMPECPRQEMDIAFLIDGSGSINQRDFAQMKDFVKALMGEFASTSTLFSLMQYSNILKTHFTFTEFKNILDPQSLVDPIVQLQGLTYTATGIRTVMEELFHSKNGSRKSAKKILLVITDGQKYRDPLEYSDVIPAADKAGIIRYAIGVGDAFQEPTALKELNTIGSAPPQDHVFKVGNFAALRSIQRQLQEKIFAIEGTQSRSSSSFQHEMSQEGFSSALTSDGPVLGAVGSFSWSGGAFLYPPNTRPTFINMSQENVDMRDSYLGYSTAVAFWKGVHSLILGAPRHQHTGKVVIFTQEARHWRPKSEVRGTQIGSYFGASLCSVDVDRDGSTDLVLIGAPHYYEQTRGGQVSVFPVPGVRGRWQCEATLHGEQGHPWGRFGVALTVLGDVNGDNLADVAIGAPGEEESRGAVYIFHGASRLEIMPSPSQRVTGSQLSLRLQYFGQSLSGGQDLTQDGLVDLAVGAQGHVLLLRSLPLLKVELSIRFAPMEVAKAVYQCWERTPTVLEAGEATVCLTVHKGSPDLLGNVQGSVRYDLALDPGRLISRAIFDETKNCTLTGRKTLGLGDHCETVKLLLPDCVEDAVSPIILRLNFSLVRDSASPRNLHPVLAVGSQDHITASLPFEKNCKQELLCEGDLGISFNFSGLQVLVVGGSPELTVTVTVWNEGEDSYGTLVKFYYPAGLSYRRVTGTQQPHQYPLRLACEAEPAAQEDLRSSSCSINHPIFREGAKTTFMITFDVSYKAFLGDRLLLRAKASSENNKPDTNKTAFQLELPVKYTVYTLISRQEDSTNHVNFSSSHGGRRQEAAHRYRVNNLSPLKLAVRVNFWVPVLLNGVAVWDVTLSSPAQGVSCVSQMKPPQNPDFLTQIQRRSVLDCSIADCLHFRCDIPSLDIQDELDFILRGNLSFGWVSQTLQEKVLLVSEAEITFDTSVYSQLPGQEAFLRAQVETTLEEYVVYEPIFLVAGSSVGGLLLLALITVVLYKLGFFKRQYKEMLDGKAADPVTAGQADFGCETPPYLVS
Experimental: as §1, §2

T1 sequence (Q13349 18-1161, chain 1 of 2): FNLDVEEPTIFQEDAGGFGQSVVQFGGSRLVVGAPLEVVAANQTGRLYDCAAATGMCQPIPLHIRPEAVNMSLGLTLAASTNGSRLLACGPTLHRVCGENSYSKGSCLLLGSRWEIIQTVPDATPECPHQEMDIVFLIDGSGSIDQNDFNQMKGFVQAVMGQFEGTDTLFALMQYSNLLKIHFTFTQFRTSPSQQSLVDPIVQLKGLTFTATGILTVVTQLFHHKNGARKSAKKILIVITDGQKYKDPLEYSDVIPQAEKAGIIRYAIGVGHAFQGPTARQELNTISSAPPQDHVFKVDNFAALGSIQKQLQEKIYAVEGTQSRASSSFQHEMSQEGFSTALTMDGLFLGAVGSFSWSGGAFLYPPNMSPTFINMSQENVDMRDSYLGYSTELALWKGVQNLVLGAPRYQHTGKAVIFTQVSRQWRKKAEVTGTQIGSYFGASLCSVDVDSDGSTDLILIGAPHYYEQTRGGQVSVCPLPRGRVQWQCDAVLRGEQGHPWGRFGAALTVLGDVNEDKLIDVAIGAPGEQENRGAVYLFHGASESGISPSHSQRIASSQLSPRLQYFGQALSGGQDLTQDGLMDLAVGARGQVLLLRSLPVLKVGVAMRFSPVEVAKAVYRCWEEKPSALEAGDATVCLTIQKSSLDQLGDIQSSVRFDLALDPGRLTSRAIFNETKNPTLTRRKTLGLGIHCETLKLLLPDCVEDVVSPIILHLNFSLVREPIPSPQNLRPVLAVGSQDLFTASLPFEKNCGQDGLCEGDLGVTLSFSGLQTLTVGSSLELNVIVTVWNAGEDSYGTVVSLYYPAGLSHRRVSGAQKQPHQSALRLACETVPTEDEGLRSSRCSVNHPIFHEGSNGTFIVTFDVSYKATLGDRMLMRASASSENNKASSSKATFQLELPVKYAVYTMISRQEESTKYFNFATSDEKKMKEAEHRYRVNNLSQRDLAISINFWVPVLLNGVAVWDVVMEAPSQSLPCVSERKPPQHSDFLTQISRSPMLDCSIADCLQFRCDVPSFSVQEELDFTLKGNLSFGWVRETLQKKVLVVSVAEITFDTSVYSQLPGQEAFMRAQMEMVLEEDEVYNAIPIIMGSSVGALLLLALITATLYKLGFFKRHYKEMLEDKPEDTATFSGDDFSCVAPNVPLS
T1 sequence (P05107 23-769, chain 2 of 2): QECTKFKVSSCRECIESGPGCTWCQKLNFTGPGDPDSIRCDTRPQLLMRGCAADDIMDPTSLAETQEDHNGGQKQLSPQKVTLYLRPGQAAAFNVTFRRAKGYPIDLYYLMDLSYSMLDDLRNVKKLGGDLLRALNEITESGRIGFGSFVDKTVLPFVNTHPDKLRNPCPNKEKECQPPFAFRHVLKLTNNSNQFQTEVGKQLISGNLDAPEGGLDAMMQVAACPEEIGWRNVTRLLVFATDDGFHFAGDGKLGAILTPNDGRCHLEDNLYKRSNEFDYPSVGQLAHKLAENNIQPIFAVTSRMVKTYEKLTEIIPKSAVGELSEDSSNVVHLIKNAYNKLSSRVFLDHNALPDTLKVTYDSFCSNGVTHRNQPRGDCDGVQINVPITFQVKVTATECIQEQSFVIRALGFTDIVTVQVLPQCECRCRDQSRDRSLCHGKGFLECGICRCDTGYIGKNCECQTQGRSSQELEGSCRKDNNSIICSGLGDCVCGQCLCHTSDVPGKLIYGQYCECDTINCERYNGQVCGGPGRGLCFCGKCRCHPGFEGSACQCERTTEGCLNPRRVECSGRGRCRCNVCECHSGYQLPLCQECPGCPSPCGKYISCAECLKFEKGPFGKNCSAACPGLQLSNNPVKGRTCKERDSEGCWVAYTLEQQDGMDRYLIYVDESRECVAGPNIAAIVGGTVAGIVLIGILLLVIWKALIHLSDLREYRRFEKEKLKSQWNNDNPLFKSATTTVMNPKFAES

B1: Exemplified Antibody 1 (antibody, human IgG4 S228P, kappa, F234A L235A, V domains shown)
VH: QVQLVQSGAEVKKPGASVKVSCKASGYTFTDYNMHWVRQAPGQGLEWMGYIYPYNGDTGYNQNFKSRVTMTRDTSTSTVYMELSSLRSEDTAVYYCARGLIYYGYLNVAMDSWGQGTLVTVSS
VL: DIQMTQSPSSLSASVGDRVTITCRASQSIGTRIHWYQQKPGKAPKLLIYFASESISGVPSRFSGSGSGTDFTLTISSLQPEDFATYYCQQSKIWPTTFGGGTKLEIKR
notes: Humanized antibody, full LC (kappa) and HC (IgG4)
- Kd [1]: 0.436 nM
- Kd [2]: 1.45 nM

B2: Exemplified Antibody 2 (antibody, human IgG4 S228P, kappa, F234A L235A, V domains shown)
VH: QVQLVQSGAEVKKPGASVKVSCKASGYTFGDYNMHWVRQAPGQGLEWMGYIYPYNGDTGYNQNFKSRVTMTRDTSTSTVYMELSSLRSEDTAVYYCARGLVHYGYLNVAMDSWGQGTLVTVSS
VL: DIQMTQSPSSLSASVGDRVTITCRASRSIGTRIHWYQQKPGKAPKLLIYFASGSISGVPSRFSGSGSGTDFTLTISSLQPEDFATYYCQQSKIFPTTFGGGTKLEIKR
notes: as for B1
- Kd [1]: 0.303 nM
- Kd [2]: 0.133 nM

B3: Exemplified Antibody 3 (antibody, human IgG4 S228P, kappa, F234A L235A, V domains shown)
VH: QVQLVQSGAEVKKPGASVKVSCKASGYTFTDYNMHWVRQAPGQGLEWMGYIYPYSGDTGYNQNFKSRVTMTRDTSTSTVYMELSSLRSEDTAVYYCARGLIYYGYLNVAMDSWGQGTLVTVSS
VL: DIQMTQSPSSLSASVGDRVTITCRASQSIGTRIHWYQQKPGKAPKLLIYFASESISGVPSRFSGSGSGTDFTLTISSLQPEDFATYYCQQSKIGPTTFGGGTKLEIKR
notes: as for B1
- Kd [1]: 0.304 nM
- Kd [2]: 0.677 nM

B4: Exemplified Antibody 4 (antibody, human IgG4 S228P, kappa, F234A L235A, V domains shown)
VH: QVQLVQSGAEVKKPGASVKVSCKASGYTFYDYNMHWVRQAPGQGLEWMGYIYPYNGDTGYNQNFKSRVTMTRDTSTSTVYMELSSLRSEDTAVYYCARGLIHYGYLNVAMDSWGQGTLVTVSS
VL: DIQMTQSPSSLSASVGDRVTITCRASRSIGTRIHWYQQKPGKAPKLLIYFASGSISGVPSRFSGSGSGTDFTLTISSLQPEDFATYYCQQSKIFPTTFGGGTKLEIKR
notes: as for B1
- Kd [1]: 0.333 nM
- Kd [2]: 0.247 nM

B5: Exemplified Antibody 5 (antibody, human IgG4 S228P, kappa, F234A L235A, V domains shown)
VH: QVQLVQSGAEVKKPGASVKVSCKASGYTFTDYNMHWVRQAPGQGLEWMGYIYPYSGDTGYNQNFKSRVTMTRDTSTSTVYMELSSLRSEDTAVYYCARGLIYYGYLNVAMDSWGQGTLVTVSS
VL: DIQMTQSPSSLSASVGDRVTITCRASESIGTRIHWYQQKPGKAPKLLIYFASESISGVPSRFSGSGSGTDFTLTISSLQPEDFATYYCQQSKIWPTTFGGGTKLEIKR
notes: as for B1
- Kd [1]: 0.344 nM
- Kd [2]: 1.18 nM
